The data set deals with the molecule itself. Put plainly: native gel or EMSA.

B1: Strep-tagged VP40[change] (VP40 truncated after residue 194) (domain or fragment)
chain: MRRVILPTAPPEYMEAIYPVRSNSTIARGGNSNTGFLTPESVNGDTPSNPLRPIADDTIDHASHTPGSVSSAFILEAMVNVISGPKVLMKQIPIWLPLGVADQKTYSFDSTTAAIMLASYTITHFGKATNPLVRVNRLGPGIPDHPLRLLRIGNQAFLQEFVLPPVQLPQYFTFDLTALKLITQPLPAATWTDD
Take B1: the “stoichiometry N” value is 8.

The values are drawn from article PMC8568338 (Cell reports, 2021).
